# The DeepSol protein solubility set
# Assay: soluble on expression in E. coli; label from the status in PepcDB or PDB records
row,Sequence,soluble on expression in E. coli
1,AQSVPYGISQIKAPALHSQGYTGSNVKVAVIDSGIDSSHPDLNVRGGASFVPSETNPYQDGSSHGTHVAGTIAALNNSIGVLGVSPSASLYAVKVLDSTGSGQYSWIINGIEWAISNNMDVINMSLGGPTGSTALKTVVDKAVSSGIVVAAAAGNEGSSGSTSTVGYPAKYPSTIAVGAVNSSNQRASFSSAGSELDVMAPGVSIQSTLPGGTYGAYNGTCMATPHVAGAAALILSKHPTWTNAQVRDRLESTATYLGNSFYYGKGLINVQAAAQ,soluble
2,ARYLDVTSRRDPEHSHRTYYVTGQVFFASADRFTASFDLREKVETLAIDLREAHFWDITAVAALDKVVLKLRRAGISVDVVGMNRATATLVDRFGVHDKPDGIDSLMGH,not soluble
3,ASIPEGTDKNAPLTSIPGYIPNMLSPPKGDAFAARNQFALAIDFEHQPPFFDVTETHKAATWLLHPQAPKVEMPADVKEKIAITRKALAIKMPSQPVKQPKSNGNKKTKTKSAR,soluble
4,ASMGKSAVIFVERATPATLTELKDALSNSILSVRDPWSIDFRTYRCSIKNLPADVSKLMYSITFHHHGRQTVLIKDNSAMVTTAAAADIPPALVFNGSSTGVPESIDTILSSKLSNIWMQRQLIKGDAGETLILDGLTVRLVNLFSSTGFKGLLIELQADEAGEFETKIAGIEGHLAEIRAKEYKTSSDSLGPDTSNEICDLAYQYVRALEL,soluble
5,ASPIGEGTFDDGPEGWVAYGTDGPLDTSTGALCVAVPAGSAQYGVGVVLNGVAIEEGTTYTLRYTATASTDVTVRALVGQNGAPYGTVLDTSPALTSEPRQVTETFTASATYPATPAADDPEGQIAFQLGGFSADAWTLCLDDVALDSEVEL,soluble
6,ATDATSLATDKDKLSYSIGADLGKNFKNQGIDVNPEAMAKGMQDAMSGAQLALTEQQMKDVLNKFQKDLMAKRTAEFNKKADENKVKGEAFLTENKNKPGVVVLPSGLQYKVINSGNGVKPGKSDTVTVEYTGRLIDGTVFDSTEKTGKPATFQVSQVIPGWTEALQLMPAGSTWEIYVPSGLAYGPRSVGGPIGPNETLIFKIHLISVKKSS,soluble
7,ATLHSFVLVDNGGTGNVTVVPVSNANGVAEWLSNNSRSQAYRVTASYRASGADKRKYTIKLEVPKIVTQVVNGVELPVSAWKAYASIDLTIPIFAATDDVTVISKSLTGLFKVGNPIAEAISSQSGFYA,soluble
8,ATPAAQASDDRYEVTQQRNPDAACLDCHKPDTEGMHGKHASVINPNNKLPVTCTNCHGQPSPQHREGVKDVMRFNEPMYKVGEQNSVCMSCHLPEQLQKAFWPHDVHVTKVACASCHSLHPQQDTMQTLSDKGRIKICVDCHSDQRTNPNFNPASVPLLKEQP,soluble
9,AVKGLGKPDQVYDGSKIRVGIIHARWNRVIIDALVKGAIERMASLGVEENNIIIETVPGSYELPWGTKRFVDRQAKLGKPLDVVIPIGVLIKGSTMHFEYISDSTTHALMNLQEKVDMPVIFGLLTCMTEEQALARAGIDEAHSMHNHGEDWGAAAVEMAVKFGKNAF,soluble
10,AYKVTLKTPDGDITFDVEPGERLIDIGSEKADLPLSCQAGACSTCLGKIVSGTVDQSEGSFLDDEQIEQGYVLTCIAIPESDVVIETHKEDEL,soluble
11,CLAEGTRIFDPVTGTTHRIEDVVDGRKPIHVVAAAKDGTLHARPVVSWFDQGTRDVIGLRIAGGAILWATPDHKVLTEYGWRAAGELRKGDRVAQPRRFDGFGDSAPIPARVQALADALDDKFLHDMLAEELRYSVIREVLPTRRARTFDLEVEELHTLVAEGVVVHN,soluble
12,CNFDCLYCELEGKKATDSMGEVAKVEEILEELREALPRYKPDVITVTANGEPTLYPALLPLIRGINALPHSAKTLILSNGSRFGEPEVQEALLEFDMVKFSLDAVSARAFKRVDRAHDSLSISQIIQGIKGFRSRYRGDLIAEVLFVKGVNDSPEEARAIARVLKEIAPSRVDLSTIDRPPAYKVEGVSPQKLEE,not soluble
13,CRELLPVEARQKTLLIDADLTLDEITPKFLNVLEQFAPFGFSNREPLFTATGCRLVGKPKLLRERHVKFTVRGEQSSSFEVIAFDRPDIFNDLEAHGSASALQLVCIPERNQWNGREYVQLRVMDMAIG,not soluble
14,CSSPQHASTVPGTTPSIWTGSPAPSGLSGHDEESPGAQSLTSTLTAPDGTKVATAKFEFANGYATVTIATTGVGKLTPGFHGLHIHQVGKCEPNSVAPTGGAPGNFLSAGGHYHVPGHTGTPASGDLASLQVRGDGSAMLVTTTDAFTMDDLLSGAKTAIIIHAGADNFANIPPERYVQVNGTPGPDETTLTTGDAGKRVACGVIGSG,soluble
15,CYVDTNNDGAYEGDELHMGSLTVKAYLLGKEEAAREIRRFSFCFSPEPEAEAAAGPGPSERLLSRVAVLFPALRPGGFQAHYRAERGDLVAFSSDEELTMAMSYVKDDIFRIYIKEK,soluble
16,DAHSLWYNFTIIHLPRHGQQWCEVQSQVDQKNFLSYDCGSDKVLSMGHLEEQLYATDAWGKQLEMLREVGQRLRLELADTELEDFTPSGPLTLQVRMSCECEADGYIRGSWQFSFDGRKFLLFDSNNRKWTVVHAGARRMKEKWEKDSGLTTFFKMVSMRDCKSWLRDFLMHRKKRLE,soluble
17,DCLLPIVAAPMAGGPTTVALAQAVSGVGGFPFLAGGYKSVEALATEIAVLRASGGNFGVNLFVPSPDMVDAEAFRIYAAKLQSEALPYGLRLDPLPVMGDDDGWPDKLALLLNDPVPVVSFTFGLPAVRDIAALRCAGSRVLASVTLPAEAQAAMEAGVDGLVVQGPDAGGHSATYDPGRPFTPLKTVSLVRRVCAVSSLPVIAAGGVDGPVMVRALLQAGAAAVAIGTLLLRTKESGATQVHKDALANPAYTETVITHAFTGRPARTLRNGFVNRYHASAPLGYPAIHHLTRPLRQAAASAGDADVLHLWAGTGYRQAMDGSAVDVIQ,not soluble
18,DDLIEGYLSSEEYYHEESARYIQKFSKYVSENELSTSDRKAFGEWVKKENYINLTIFKDQELQYDSIYSESDYGKEKLTQYAQNHSHPVKFSDGEGRVIIDGFYSSRYYD,not soluble
19,DEYLENLTDTPKHSKAYPIIKFEFTGRSVDAPLLSQASKKFGVELSILTSQIDYAGGVKFGYTIAEVEGDEDAITQTKVYLMENNVRVEVLGYVQ,not soluble
20,DFFRSAIDQAPSFMAVLDGRDHIFRIVNQAYHQLVGRRDLLNRTVREALPELDGQGFFELLDEVFLTGLAFTRLAAPVLLRRGPEIERSFVDFIMCPLRGPDGQVRGVFVEGHDVT,not soluble
21,DGFKIVQFSDAHLSDYFTLEDLKTVILTINESKPDLIVFTGDIIDNPDTYQHHQAVIPLLRKLNAPFGKLCIYGNHDHGGYGTAVYKSLMTAGGFTVYRNGYQTLSLADGSKIEIASLDDFNAGKPRFMQGTLSRLSDRLFSILLVHEPDAALKTTDYPVNLQLSGHTHGGQIQLPFYGPIITPPYGKVYTEGMYQTGSTHIYVNRG,not soluble
22,DIQMNQSPSSLSASLGDTITITCHASQNINVWLNWFQQKPGSIPKLLIYMASNLHTGVPSRFSGSGSGTGFTLTISSLQPEDIATYYCQQGQSFPLTFGGGTKLEIKRADAAPTVSIFPPSSEQLTSGGASVVCFLNNFYPKDINVKWKIDGSERQNGVLNSWTDQDSKDSTYSMSSTLTLTKDEYERHNSYTCEATHKTSTSPIVKSFNRN,soluble
23,DITGIPTGFNELDKMTAGFQRNDLIIVAARPSVGKTAFALNIAQNVATKTDENVAIFSLEMGAEQLVMRMLCAEGNINAQNLRTGALTSDDWQKLTIAMGTLSNSGIYIDDTPGVRVNEIRSKCRRLKQETGLGMIVIDYLQLIAGSGRGGENRQQEVSEISRSLKALARELEVPVIALSQLSRSVEQRQDKRPMMSDI,not soluble
24,DKEWNEKELQKLHCAFASLPKHKPGFWSEVAAAVGSRSPEECQRKYMENPRGKGSQKHVT,soluble
25,DKVSLKLPKSNGELFEFKWLDHKIAYIALNGFHDKKILQDFNDVYDEIKQSRGLIIDLRFNGGGNSSIAAEILSHFTNKGLEGSIWKNRKHIAAFKAWGNYSGKYKIYAQDNAWESGAMESLKAKENSHIVPTYVLIGRNTASAAEDFLIYADKLKHFTTLGENTYGSTGQPIFFDLPGGGSFRICTKRDTYPDGREFVGYGITPQVIIDRMPEHLRSEKDIVLYSAIKKLKEKI,not soluble
26,DLTAIIGLEVHVQLETDTKIFCGCSTDTDDADPNTHTCPVCLGLPGALPTLNEGAVEAAVKLGKAIDADIPERTRFHRKNYFYPDLPKGFQITQYDAPICQDGELEVGTADDRRAIGIERAHLEEDPGSLQHVGGSIEDADYTLVDYNRAGTPLMEIVTRPDFRAAEEVRSFLAKLTSVLEYLGVFDAERDGSLRVDANISMVDSAELAGEGGPSDDVLEAANRTEVKNISSHRAAQKALAYETTRQRNQLER,not soluble
27,DNKINIGLAVMKILESWGADTIYGIPSGTLSSLMDAMGEEENNVKFLQVKHEEVGAMAAVMQSKFGGNLGVTVGSGGPGASHLINGLYDAAMDNIPVVAILGSRPQRELNMDAFQELNQNPMYDHIAVYNRRVAYAEQLPKLVDEAARMAIAKRGVAVLEVPGDFAKVEIDNDQWYSSANSLRKYAPIAPAAQDIDAAVELLNNSKRPVIYAGIGTMGHGPAVQELARKIKAPVITTGKNFETFEWDFEALTGSTYRVGWKPANETILEADTVLFAGSNFPFSEVEGTFRNVDNFIQIDIDPAMLGKRHHADVAILGDAALAIDEILNKVDAVEESAWWTANLKNIANWREYINMLETKEEGDLQFYQVYNAINNHADEDAIYSIDVGNSTQTSIRHLHMTPKNMWRTSPLFATMGIAIPGGLGAKNTYPDRQVWNIIGDGAFSMTYPDVVTNVRYNMPVINVVFSNTEYAFIKNKYEDTNKNLFGVDFTDVDYAKIAEAQGAKGFTVSRIEDMDRVMAEAVAANKAGHTVVIDCKITQDRPIPVETLKLDSKLYSEDEIKAYKERYEAANLVPFREYLEAEGLESKYIK,soluble
28,DPDEDSDNSAIYVQGLNDSVTLDDLADFFKQCGVVKMNKRTGQPMIHIYLDKETGKPKGDATVSYEDPPTAKAAVEWFDGKDFQGSKLKVSLARKKPPMN,soluble
29,DQALATALPGKWIHLRILALANAHIVIDEVHTLDHYQTALLENILPILAKLKTKITFLTATMPSWQRTKLLTAYGGEDLQIPPTVFPAAETVLPGQFNRTLIDSDSTTIDFTMEETSYDHLVESHVKWHQTTRLNAPHARIGLICNTVKRAQEIAAALEKTNDRIVLLHSRMTTEHRRRSAELLESLLGPNGNRKTITVVGTQAIEASLDIDLDILRTELCPAPSLVQRAGRVWRRNDPYRSSRITADHKPISVVFIAEAEDWQVLPYLRAETSRTQRWLEKHNQMFLPQMAQEFIDAATVDLDTATSEMDLDALALMGIHLMKADGAKARIQDVLNSDSKVSDFALLTSKNEIDEAQTRLIEEGTHLRIILGDENESIPGGWKHGLSSLLKLKASDRESLRTALLASIPLLVSEKQKQLLYQHN,not soluble
30,DQGIVIYNAQHENLVKSWVDGFTKDTGIKVTLRNGGDSELGNQLVQEGSASPADVFLTENSPAMVLVDNAKLFAPLDAATLAQVEPQYRPSHGRWIGIAARSTVFVYNPAKLSDAQLPKSLLDLAKPEWKGRWAASPSGADFQAIVSALLELKGEKATLAWLKAMKTNFTAYKGNSTVMKAVNAGQVDSGVIYHYYPFVDGAKTGENSNNIKLYYFKHQDPGAFVSISGGGVLASSKHQQQAQAFIKWITGKQGQEILRTNNAFEYAVGVGAASNPKLVPLKDLDAPKVDAAQLNSKKVVELMTEAGLL,soluble
